Source: US6747136

Target: HCV E2 antigen (HCV genotype 1b) (hepatitis C virus genotype 1b)

B1: Fab molecule clone 1:11 (Fab, V domains shown)
VH: VQLLEQSGAEVKKPGSSVKVSCKASGGTFSGHVISWVRQAPGQGLEWMGGSISFFGTSNSAQKFQGRVSITADESASTAYMELSSLRSEDTAIYYCAKDPPRFCSGGNCYPGFFQQWGQGTLVTVSS
VL: AELTQSPGTLSLSPGERATLSCGASQSVRSNYLAWYQQKPGQAPRLLIYGVSSRATGIPDRFSGSGSGTDFTLTISRLEPEDFAVYYCQQYGSSPRTFGQGTKLEIK
With B1 the IC50 was 0.15 µg/mL.
